# Results reported in publication PMC9064986.
# T1: BMP10 growth factor (GF)-domain from Pro:BMP10 made in HEK EBNA cells, O95393
# T1 chain: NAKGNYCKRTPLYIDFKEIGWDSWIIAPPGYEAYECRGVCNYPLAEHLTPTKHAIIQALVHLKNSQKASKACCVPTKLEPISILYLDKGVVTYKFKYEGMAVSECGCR
# T2: Recombinant human BMP10 growth factor (GF)-domain (R&D Systems), O95393
# T2 chain: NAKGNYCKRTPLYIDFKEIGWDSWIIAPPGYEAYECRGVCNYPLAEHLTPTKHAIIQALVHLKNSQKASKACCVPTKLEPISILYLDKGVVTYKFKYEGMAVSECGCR
# B1: BMPRII extracellular domain (ECD), wild type, Q13873-1 ΔGDP (del of Gly, Asp and Pro in the A-loop) (protein)
# chain: SQNQERLCAFKDPYQQDLGIGESRISHENGTILCSKGSTCYGLWEKSKGDINLVKQGCWSHIQECHYEECVVTTTPPSIQNGTYRFCCCSTDLCNVNFTENFPPPDTTPLSPPHSFNRDET
# Experiments:
# [1] = molecular target: T1, BMP10 growth factor (GF)-domain from …; assay: ELISA (prodomain displacement); details: chain shown with the change; BMPRII ECD at 125x excess over Pro:BMP10; lower reading = more prodomain displaced; parent: est. 0.42; read off a plot
# [2] = molecular target: T1, BMP10 growth factor (GF)-domain from …; assay: native PAGE prodomain displacement (densitometry); details: chain shown with the change, lower ratio = more prodomain displaced, read off a plot
# [3] = molecular target: T2, Recombinant human BMP10 growth factor …; assay: SPR (Biacore); details: chain shown with the change, BMP10 immobilised on a CM5 Biacore chip
binder,measurement,setting,value
B1,"other: OD reading, normalized to no BMPRII control",[1],0.62
same,"other: Pro:BMP10/prodomain ratio, normalized to no BMPRII control","[2]; BMPRII ECD at 2-fold excess (2x) over Pro:BMP10, parent: est. 0.59",0.94
same,"other: Pro:BMP10/prodomain ratio, normalized to no BMPRII control","[2]; BMPRII ECD at 5-fold excess (5x) over Pro:BMP10, parent: est. 0.46",0.74
same,Kd,[3]; parent: 1.19E-06 M,1170 nM
same,koff,[3]; parent: 1.61E-01 s-1,0.0583 s⁻¹
